Laboratory results published in IntAct's records for PubMed 31515488.

B1: Ligand of Numb protein X 2 (Homo sapiens), Q8N448 (parent)
chain: MGTTSDEMVSVEQTSSSSLNPLCFECGQQHWTRENHLYNYQNEVDDDLVCHICLQPLLQPLDTPCGHTFCYKCLRNFLQEKDFCPLDRKRLHFKLCKKSSILVHKLLDKLLVLCPFSSVCKDVMQRCDLEAHLKNRCPGASHRRVALERRKTSRTQAEIENENGPTLLDPAGTLSPEADCLGTGAVPVERHLTSASLSTWSEEPGLDNPAFEESAGADTTQQPLSLPEGEITTIEIHRSNPYIQLGISIVGGNETPLINIVIQEVYRDGVIARDGRLLAGDQILQVNNYNISNVSHNYARAVLSQPCNTLHLTVLRERRFGNRAHNHSDSNSPREEIFQVALHKRDSGEQLGIKLVRRTDEPGVFILDLLEGGLAAQDGRLSSNDRVLAINGHDLKYGTPELAAQIIQASGERVNLTIARPGKPQPGNTIREAGNHSSSSQHHTPPPYYSRPSSHKDLTQCVTCQEKHITVKKEPHESLGMTVAGGRGSKSGELPIFVTSVPPHGCLARDGRIKRGDVLLNINGIDLTNLSHSEAVAMLKASAASPAVALKALEVQIVEEATQNAEEQPSTFSENEYDASWSPSWVMWLGLPSTLHSCHDIVLRRSYLGSWGFSIVGGYEENHTNQPFFIKTIVLGTPAYYDGRLKCGDMIVAVNGLSTVGMSHSALVPMLKEQRNKVTLTVICWPGSLV
partner: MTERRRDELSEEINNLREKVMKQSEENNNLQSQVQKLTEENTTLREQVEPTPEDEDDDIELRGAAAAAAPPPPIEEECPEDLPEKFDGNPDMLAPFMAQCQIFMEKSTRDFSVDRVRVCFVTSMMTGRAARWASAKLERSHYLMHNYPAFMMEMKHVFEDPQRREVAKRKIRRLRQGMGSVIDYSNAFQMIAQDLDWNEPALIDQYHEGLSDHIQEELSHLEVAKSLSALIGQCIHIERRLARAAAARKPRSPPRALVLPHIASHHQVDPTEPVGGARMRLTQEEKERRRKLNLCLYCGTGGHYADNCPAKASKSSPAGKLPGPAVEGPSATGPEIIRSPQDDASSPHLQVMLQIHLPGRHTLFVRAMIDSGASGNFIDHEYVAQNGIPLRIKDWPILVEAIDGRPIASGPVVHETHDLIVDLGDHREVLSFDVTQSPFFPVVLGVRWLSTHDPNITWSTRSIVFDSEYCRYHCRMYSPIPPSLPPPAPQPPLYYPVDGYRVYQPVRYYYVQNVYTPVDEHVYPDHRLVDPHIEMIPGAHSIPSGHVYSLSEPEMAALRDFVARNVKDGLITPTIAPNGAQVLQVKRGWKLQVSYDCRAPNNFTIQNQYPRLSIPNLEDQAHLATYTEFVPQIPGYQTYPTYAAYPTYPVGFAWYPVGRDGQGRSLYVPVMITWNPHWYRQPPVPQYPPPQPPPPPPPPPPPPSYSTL
B2: Zinc finger protein Aiolos (Homo sapiens), Q9UKT9 (parent)
chain: MEDIQTNAELKSTQEQSVPAESAAVLNDYSLTKSHEMENVDSGEGPANEDEDIGDDSMKVKDEYSERDENVLKSEPMGNAEEPEIPYSYSREYNEYENIKLERHVVSFDSSRPTSGKMNCDVCGLSCISFNVLMVHKRSHTGERPFQCNQCGASFTQKGNLLRHIKLHTGEKPFKCHLCNYACQRRDALTGHLRTHSVEKPYKCEFCGRSYKQRSSLEEHKERCRTFLQSTDPGDTASAEARHIKAEMGSERALVLDRLASNVAKRKSSMPQKFIGEKRHCFDVNYNSSYMYEKESELIQTRMMDQAINNAISYLGAEALRPLVQTPPAPTSEMVPVISSMYPIALTRAEMSNGAPQELEKKSIHLPEKSVPSERGLSPNNSGHDSTDTDSNHEERQNHIYQQNHMVLSRARNGMPLLKEVPRSYELLKPPPICPRDSVKVINKEGEVMDVYRCDHCRVLFLDYVMFTIHMGCHGFRDPFECNMCGYRSHDRYEFSSHIARGEHRALLK
partner: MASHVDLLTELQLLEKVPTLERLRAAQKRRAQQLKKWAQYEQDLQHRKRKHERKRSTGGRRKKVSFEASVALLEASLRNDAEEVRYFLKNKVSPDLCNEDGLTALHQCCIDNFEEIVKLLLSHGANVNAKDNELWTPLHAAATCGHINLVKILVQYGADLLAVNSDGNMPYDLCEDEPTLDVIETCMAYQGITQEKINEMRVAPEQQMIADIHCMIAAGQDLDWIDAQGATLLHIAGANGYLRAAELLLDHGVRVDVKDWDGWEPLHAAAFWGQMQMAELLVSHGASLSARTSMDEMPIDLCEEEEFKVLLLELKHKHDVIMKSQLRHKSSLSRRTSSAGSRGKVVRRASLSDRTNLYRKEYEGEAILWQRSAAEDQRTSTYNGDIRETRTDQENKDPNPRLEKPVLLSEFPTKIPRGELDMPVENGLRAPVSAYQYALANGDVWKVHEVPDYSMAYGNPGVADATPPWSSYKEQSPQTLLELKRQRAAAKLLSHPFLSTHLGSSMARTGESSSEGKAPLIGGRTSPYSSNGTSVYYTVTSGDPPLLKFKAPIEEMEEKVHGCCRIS
B3: Polymerase delta-interacting protein 3 (Homo sapiens), Q9BY77 (parent)
chain: MADISLDELIRKRGAAAKGRLNARPGVGGVRSRVGIQQGLLSQSTRTATFQQRFDARQKIGLSDARLKLGVKDAREKLLQKDARFRIKGKVQDAREMLNSRKQQTTVPQKPRQVADAREKISLKRSSPAAFINPPIGTVTPALKLTKTIQVPQQKAMAPLHPHPAGMRINVVNNHQAKQNLYDLDEDDDGIASVPTKQMKFAASGGFLHHMAGLSSSKLSMSKALPLTKVVQNDAYTAPALPSSIRTKALTNMSRTLVNKEEPPKELPAAEPVLSPLEGTKMTVNNLHPRVTEEDIVELFCVCGALKRARLVHPGVAEVVFVKKDDAITAYKKYNNRCLDGQPMKCNLHMNGNVITSDQPILLRLSDSPSMKKESELPRRVNSASSSNPPAEVDPDTILKALFKSSGASVTTQPTEFKIKL
partner: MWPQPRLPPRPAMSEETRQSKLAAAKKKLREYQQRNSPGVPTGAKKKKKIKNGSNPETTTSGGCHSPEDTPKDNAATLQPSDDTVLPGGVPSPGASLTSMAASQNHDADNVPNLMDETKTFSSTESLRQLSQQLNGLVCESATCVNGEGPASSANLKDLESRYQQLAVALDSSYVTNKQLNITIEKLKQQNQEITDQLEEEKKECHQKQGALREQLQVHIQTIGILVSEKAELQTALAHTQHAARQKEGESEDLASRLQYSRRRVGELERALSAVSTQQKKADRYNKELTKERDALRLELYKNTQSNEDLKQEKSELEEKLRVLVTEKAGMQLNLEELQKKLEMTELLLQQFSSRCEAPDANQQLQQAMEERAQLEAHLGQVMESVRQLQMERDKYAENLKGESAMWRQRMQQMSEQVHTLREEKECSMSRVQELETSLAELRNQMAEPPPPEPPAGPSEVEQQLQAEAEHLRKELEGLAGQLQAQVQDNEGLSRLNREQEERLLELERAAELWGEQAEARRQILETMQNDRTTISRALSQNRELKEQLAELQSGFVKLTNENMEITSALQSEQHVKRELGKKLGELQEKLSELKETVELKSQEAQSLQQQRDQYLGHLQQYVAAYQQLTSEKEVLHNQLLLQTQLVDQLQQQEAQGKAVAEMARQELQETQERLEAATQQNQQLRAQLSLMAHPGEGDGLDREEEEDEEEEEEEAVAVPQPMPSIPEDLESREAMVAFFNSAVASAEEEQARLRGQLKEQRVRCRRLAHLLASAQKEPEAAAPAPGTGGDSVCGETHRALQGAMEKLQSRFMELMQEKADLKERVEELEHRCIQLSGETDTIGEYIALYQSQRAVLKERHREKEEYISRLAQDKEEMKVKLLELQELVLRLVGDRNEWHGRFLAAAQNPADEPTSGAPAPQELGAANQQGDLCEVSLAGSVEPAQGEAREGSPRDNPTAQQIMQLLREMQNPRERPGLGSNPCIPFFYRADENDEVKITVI

Variants of: B1
Conditions: with peg10_human PEG10, Q86TG7

| effect of a mutation on the interaction | Variant |
| --- | --- |
| with no effect | T183I |

Variants of: B2
Conditions: with pp16b_human PPP1R16B

| effect of a mutation on the interaction | Variant |
| --- | --- |
| with no effect | N119D |
| with no effect | A24V |

Variants of: B3
Conditions: with goga2_human GOLGA2, Q08379

| effect of a mutation on the interaction | Variant |
| --- | --- |
| with no effect | A16V |
| with no effect | A15T |
| disrupting interaction strength | R118Q |
